Measured values: patent US20170369576A1 (UBI US, published 2017)
“And” between values parts separate entries of the source, which are not always exact repeats. Identical values can stand only once.

Experiments:
[1] = biological target: T1, human CD4, membrane-bound on cells (HPB-ALL cells, blood/PBMC CD4+ T cells, assay target cells) (human, UniProt P01730 26-458); assay: FACS, fresh blood CD4+ T cells of subject M3; free CD4 sites left by dB4 detected by dB4C7-Alexa (250 ng/mL)
T1 construct: whole, on cells; Target on human HPB-ALL T-leukemic cells, human blood CD4+ T lymphocytes and CD4+ indicator cells of the neutralisation assays; also called CD4 receptor; surface CD4

[2] = biological target: T1, human CD4, membrane-bound on cells …; assay: competition FACS on HPB-ALL cells; inhibition of dB4-Alexa (250 ng/mL)
Method: On V-bottomed microplates, aliquots of 2×10⁵ cells in 0.1 mL per well were added, centrifuged, and liquid discarded. […] The cells were washed once and the liquid discarded after centrifugation. To each well, aliquots of 200 μL of binding buffer were added and transferred to microdilution tubes for flow cytometric analysis. The binding intensity (mean fluorescence intensity, MFI), based on an inlet of 5,000 cells per sample, was read on FACS.

[3] = biological target: T1, human CD4, membrane-bound on cells …; assay: FACS, fresh blood CD4+ T cells of subject M1; free CD4 sites left by dB4 detected by dB4C7-Alexa (250 ng/mL)
[4] = biological target: T1, human CD4, membrane-bound on cells …; assay: FACS direct binding to HPB-ALL cells, on ice 1 h, goat F(ab)2 anti-huIgG Fc-FITC; EC50 by MFI, exp. 2
Method: (§1) On V-bottomed microplates, aliquots of 2×10⁵ cells in 0.1 mL per well were added, centrifuged, and liquid discarded. […] This step was repeated one more time. The cells from the three incubations (passages) were investigated. […] The cells were washed once and the liquid discarded after centrifugation. To each well, aliquots of 200 μL of binding buffer were added and transferred to microdilution tubes for flow cytometric analysis. The binding intensity (mean fluorescence intensity, MFI), based on an inlet of 5,000 cells per sample, was read on FACS.
(§2) The absolute MFI values were also normalized to % MFI for purpose of between-passage comparison.

[5] = biological target: T1, human CD4, membrane-bound on cells …; assay: FACS direct binding to HPB-ALL cells, on ice 1 h, goat F(ab)2 anti-huIgG Fc-FITC; EC50 by % MFI, exp. 2
Method: as §1, §2

[6] = biological target: T1, human CD4, membrane-bound on cells …; assay: FACS direct binding to HPB-ALL cells, on ice 1 h, goat F(ab)2 anti-huIgG Fc-FITC; EC50 by % MFI, exp. 1
Method: as §1, §2

[7] = biological target: T1, human CD4, membrane-bound on cells …; assay: FACS, fresh blood CD4+ T cells of subject F1; free CD4 sites left by dB4 detected by dB4C7-Alexa (250 ng/mL)
[8] = biological target: T1, human CD4, membrane-bound on cells …; assay: cell-based or functional assay
[9] = biological target: T1, human CD4, membrane-bound on cells …; assay: FACS, fresh blood CD4+ T cells of subject F3; free CD4 sites left by dB4 detected by dB4C7-Alexa (250 ng/mL)
[10] = biological target: T1, human CD4, membrane-bound on cells …; assay: saturation binding to HPB-ALL cells on ice 1 h; free antibody by ELISA, bound by subtraction, curve fit; mean of 3
Method: (§3) The resultant saturating free-vs.-bound concentration profiles were analyzed on SigmaPlot by curve-fitting based on the equation, [B]=Bmax·{[F]/([F]+Kd)}, where the respective [B] and [F] stand for the bound and free concentrations.
(§4) The binding study was conducted at cold and/or under 0.05% azide to avoid a potential endocytosis of the ligand-receptor complexes. Incubation at room temperature or 37° C. could allow a reaction plateau to be reached sooner. […] The supernatants were collected for determination by ELISA of the free drug concentrations, and the bound fractions were obtained by subtraction from the total.

[11] = biological target: T1, human CD4, membrane-bound on cells …; assay: FACS direct binding to HPB-ALL cells, on ice 1 h, goat F(ab)2 anti-huIgG Fc-FITC; EC50 by % MFI, mean of 3
Method: as §1, §2

[12] = biological target: T1, human CD4, membrane-bound on cells …; assay: saturation binding to HPB-ALL cells on ice 1 h; free antibody by ELISA, bound by subtraction, curve fit; exp. 3
Method: as §3, §4

[13] = biological target: T1, human CD4, membrane-bound on cells …; assay: FACS, fresh blood CD4+ T cells, mean of six subjects; bound dB4 detected by goat anti-hIgG-FITC
From the text: The samples were calibrated with reference beads for fluorescence reading.

[14] = biological target: T1, human CD4, membrane-bound on cells …; assay: binding to human CD4 positive T cells (FIG. 21)
[15] = biological target: T1, human CD4, membrane-bound on cells …; assay: FACS direct binding to HPB-ALL cells, on ice 1 h, goat F(ab)2 anti-huIgG Fc-FITC; EC50 by MFI, exp. 1
Method: as §1, §2

B1: mAb dB4C7 (human deimmunized, Fc-aglycosylated IgG1 derived from murine mAb B4, expressed by clone 7) (antibody, V domains shown)
VH: QVQLVQSGPELKKPGASVKVSCKASGYTFTDYVIHWVKQATGQGLEWIGEIYPGSGSAYSNAKFKDRVTMTADKSSNTAYMELSSLTSDDTAVYFCARRGNGTGFAYWGQGTLVTVSS
VL: DIVLTQSPASLAVSLGQRATITCKAGQSVDYDGDSYMNWYQQKPGQPPKLLIYVASNLESGIPARFSGSGSGTDFTLNIHPVEENDAATYYCQQSYKDPLTFGQGTKLEIKR
modifications: N-glycosylated at Asn101 in the Fv; Fc N-glycosylation site removed (N298H)
notes: treated as one molecule; also called deimmunized B4
[1]
  EC50: 0.0033 µg/mL
[2]
  IC50: 0.197 µg/mL and 1.8 nM
[3]
  EC50: 0.0048 µg/mL
[4]
  EC50: 0.0437 µg/mL
[5]
  EC50: 0.0457 µg/mL
[6]
  EC50: 0.0424 µg/mL
[7]
  EC50: 0.0043 µg/mL
[8]
  IC50 of HIV entry inhibition, pseudotype virus 92TH594 (R5/X4), U87-CD4+/CCR5+/CXCR4+ cells: 0.05 µg/mL
  IC50 of HIV entry inhibition, pseudotype virus HXB2 (X4), U87-CD4+/CCR5+/CXCR4+ cells: 0.4 µg/mL
[9]
  EC50: 0.0043 µg/mL
[10]
  Kd: 0.0085 µg/mL and 0.056 nM
[11]
  EC50: 0.0429 µg/mL
[12]
  Kd: 0.0047 µg/mL and 0.031 nM
[13]
  EC50: 0.0041 µg/mL
[14]
  EC50: 0.33 µg/mL
[15]
  EC50: 0.0421 µg/mL
